{"source": "paper PMC9482650", "about": "“Quantitative fragmentomics allow affinity mapping of interactomes” (Nature Communications, 2022)", "assay_in_all_cases": "holdup assay", "parameters_in_all_cases": "key: below the threshold = too weak to quantify, mostly under pKd 3.1 to 4", "key": {"[1]": {"biological_target": "T1, APBA3_1, O96018", "T1 sequence (O96018 389-490, limits assumed, looked up)": "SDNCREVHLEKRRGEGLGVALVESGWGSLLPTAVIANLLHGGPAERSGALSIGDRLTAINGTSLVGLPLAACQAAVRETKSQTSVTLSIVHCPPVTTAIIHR"}, "[2]": {"biological_target": "T2, ARHGAP21, Q5T5U3", "T2 sequence (Q5T5U3 45-169, limits assumed, looked up)": "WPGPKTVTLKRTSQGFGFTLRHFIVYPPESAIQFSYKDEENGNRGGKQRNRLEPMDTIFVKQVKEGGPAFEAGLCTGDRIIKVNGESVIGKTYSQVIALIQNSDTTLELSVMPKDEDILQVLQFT"}, "[3]": {"biological_target": "T3, DFNB31_3, Q9P202", "T3 sequence (Q9P202 811-907, limits assumed, looked up)": "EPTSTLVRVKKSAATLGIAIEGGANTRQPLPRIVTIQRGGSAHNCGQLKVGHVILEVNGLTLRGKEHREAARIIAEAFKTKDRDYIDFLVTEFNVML"}, "[4]": {"biological_target": "DLG1_2, Q12959", "sequence (Q12959 314-412)": "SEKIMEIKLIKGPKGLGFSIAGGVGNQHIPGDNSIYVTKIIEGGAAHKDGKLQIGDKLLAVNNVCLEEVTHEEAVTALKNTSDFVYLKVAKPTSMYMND"}, "[5]": {"biological_target": "DLG2_2, Q15700", "sequence (Q15700 189-283)": "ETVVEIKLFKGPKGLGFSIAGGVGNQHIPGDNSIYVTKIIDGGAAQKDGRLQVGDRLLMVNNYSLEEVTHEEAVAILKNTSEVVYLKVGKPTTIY"}, "[6]": {"biological_target": "DLG4_3, P78352", "sequence (P78352 306-403)": "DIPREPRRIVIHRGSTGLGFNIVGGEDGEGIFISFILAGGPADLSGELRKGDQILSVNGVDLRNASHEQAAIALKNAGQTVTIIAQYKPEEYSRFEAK"}, "[7]": {"biological_target": "DLG5_1, Q8TDM6", "sequence (Q8TDM6 617-713)": "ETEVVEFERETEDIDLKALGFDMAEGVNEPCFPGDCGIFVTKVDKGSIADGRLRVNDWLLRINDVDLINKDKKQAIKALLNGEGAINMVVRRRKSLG"}, "[8]": {"biological_target": "T4, DVL3, Q92997", "T4 sequence (Q92997 244-331, limits assumed, looked up)": "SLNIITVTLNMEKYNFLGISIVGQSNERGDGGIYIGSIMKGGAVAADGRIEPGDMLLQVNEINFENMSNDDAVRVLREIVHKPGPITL"}, "[9]": {"biological_target": "FRMPD2_1, Q68DX3", "sequence (Q68DX3 770-861)": "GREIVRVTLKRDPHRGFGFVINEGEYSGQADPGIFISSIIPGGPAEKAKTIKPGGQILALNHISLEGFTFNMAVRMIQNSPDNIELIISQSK"}, "[10]": {"biological_target": "FRMPD3, Q5JV73", "sequence (Q5JV73 12-100)": "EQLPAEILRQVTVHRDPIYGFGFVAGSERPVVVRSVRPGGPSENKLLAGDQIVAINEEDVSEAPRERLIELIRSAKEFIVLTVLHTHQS"}, "[11]": {"biological_target": "T5, GRIP1_2, Q9Y3R0", "T5 sequence (Q9Y3R0 145-248, limits assumed, looked up)": "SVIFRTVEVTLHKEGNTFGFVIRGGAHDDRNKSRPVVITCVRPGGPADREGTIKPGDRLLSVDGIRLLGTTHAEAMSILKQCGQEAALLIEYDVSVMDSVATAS"}, "[12]": {"biological_target": "GRIP2_3, Q9C0E4", "sequence (Q9C0E4 238-339)": "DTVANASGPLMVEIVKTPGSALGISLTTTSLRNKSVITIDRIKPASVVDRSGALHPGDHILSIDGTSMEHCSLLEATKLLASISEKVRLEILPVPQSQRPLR"}, "[13]": {"biological_target": "GRIP2_6, Q9C0E4", "sequence (Q9C0E4 648-740)": "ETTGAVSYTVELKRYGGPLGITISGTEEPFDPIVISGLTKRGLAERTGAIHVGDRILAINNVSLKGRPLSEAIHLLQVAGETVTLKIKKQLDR"}, "[14]": {"biological_target": "GRIP2_7, Q9C0E4", "sequence (Q9C0E4 934-1023)": "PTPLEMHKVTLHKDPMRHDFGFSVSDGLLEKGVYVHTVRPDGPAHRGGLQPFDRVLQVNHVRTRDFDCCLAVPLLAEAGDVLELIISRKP"}, "[15]": {"biological_target": "T6, HTRA4, P83105", "T6 sequence (P83105 378-476, limits assumed, looked up)": "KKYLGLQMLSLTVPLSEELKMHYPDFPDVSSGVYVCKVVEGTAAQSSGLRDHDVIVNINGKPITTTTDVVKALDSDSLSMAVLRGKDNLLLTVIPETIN"}, "[16]": {"biological_target": "IL16_4, Q14005", "sequence (Q14005 1229-1329)": "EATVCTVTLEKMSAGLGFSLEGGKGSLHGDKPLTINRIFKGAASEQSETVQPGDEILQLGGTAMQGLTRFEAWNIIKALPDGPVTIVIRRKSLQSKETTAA"}, "[17]": {"biological_target": "Inadl_2, Q8NI35", "sequence (Q8NI35 238-335)": "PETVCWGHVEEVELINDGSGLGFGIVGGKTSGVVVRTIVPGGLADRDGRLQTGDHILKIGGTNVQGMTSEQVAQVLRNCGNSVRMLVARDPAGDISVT"}, "[18]": {"biological_target": "Inadl_8, Q8NI35", "sequence (Q8NI35 1425-1530)": "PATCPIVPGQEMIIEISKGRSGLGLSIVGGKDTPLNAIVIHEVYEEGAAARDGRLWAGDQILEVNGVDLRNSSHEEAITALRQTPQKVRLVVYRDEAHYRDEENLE"}, "[19]": {"biological_target": "Inadl_9, Q8NI35", "sequence (Q8NI35 1530-1615)": "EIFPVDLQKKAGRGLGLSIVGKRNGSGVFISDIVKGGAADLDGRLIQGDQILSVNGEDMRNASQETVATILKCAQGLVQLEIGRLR"}, "[20]": {"biological_target": "LAP2, Q96RT1", "sequence (Q96RT1 other isoform, or with tags, fused parts or gaps)": "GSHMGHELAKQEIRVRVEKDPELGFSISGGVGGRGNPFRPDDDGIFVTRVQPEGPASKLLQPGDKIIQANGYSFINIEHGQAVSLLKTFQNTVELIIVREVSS"}, "[21]": {"biological_target": "LDB3, O75112", "sequence (O75112 1-94)": "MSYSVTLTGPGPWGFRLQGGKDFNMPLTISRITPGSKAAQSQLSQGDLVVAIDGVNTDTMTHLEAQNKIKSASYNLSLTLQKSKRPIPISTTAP"}, "[22]": {"biological_target": "T7, LRRC7, Q96NW7", "T7 sequence (Q96NW7 1440-1537, limits assumed, looked up)": "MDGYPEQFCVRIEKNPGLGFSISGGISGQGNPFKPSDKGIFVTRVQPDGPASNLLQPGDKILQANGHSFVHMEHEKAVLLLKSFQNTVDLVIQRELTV"}, "[23]": {"biological_target": "MAGI2_2, Q86UL8", "sequence (Q86UL8 410-522)": "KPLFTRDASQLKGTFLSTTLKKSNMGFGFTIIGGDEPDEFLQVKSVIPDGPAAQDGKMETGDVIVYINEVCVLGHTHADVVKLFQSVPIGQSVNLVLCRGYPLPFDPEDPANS"}, "[24]": {"biological_target": "MAST2, Q6P0Q8", "sequence (Q6P0Q8 1099-1202)": "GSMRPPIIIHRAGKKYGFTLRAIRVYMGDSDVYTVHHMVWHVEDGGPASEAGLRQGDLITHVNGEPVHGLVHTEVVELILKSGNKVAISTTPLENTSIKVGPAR"}, "[25]": {"biological_target": "T8, MPP6, Q9NZW5", "T8 sequence (Q9NZW5 125-219, limits assumed, looked up)": "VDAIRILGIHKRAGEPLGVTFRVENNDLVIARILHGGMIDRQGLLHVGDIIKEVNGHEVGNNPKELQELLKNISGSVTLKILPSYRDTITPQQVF"}, "[26]": {"biological_target": "T9, RHPN1, Q8TCX5", "T9 sequence (Q8TCX5 508-602, limits assumed, looked up)": "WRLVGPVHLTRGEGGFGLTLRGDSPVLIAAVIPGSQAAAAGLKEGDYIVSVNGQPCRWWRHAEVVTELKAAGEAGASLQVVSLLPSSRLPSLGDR"}, "[27]": {"biological_target": "SCRIB_1, Q14160", "sequence (Q14160 718-814)": "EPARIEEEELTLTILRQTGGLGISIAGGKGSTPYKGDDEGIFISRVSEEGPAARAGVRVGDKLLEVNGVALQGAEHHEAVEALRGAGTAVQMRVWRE"}, "[28]": {"biological_target": "SNX27, Q96L92"}, "[29]": {"settings": "plain residues with an end cap or a label only (N-terminal biotin on a linker: ahx)"}, "[30]": {"settings": "plain residues with an end cap or a label only (N-terminal biotin on a linker: ado-ado)"}}}
{"binder": "HSATSVHTSV", "note": "[MTMR1, Q13613]", "values": [{"measurement": "pKd", "setting": "[1]; [29]", "value": "below the threshold"}, {"measurement": "pKd", "setting": "[2]; [29]", "value": 3.49}, {"measurement": "pKd", "setting": "[3]; [29]", "value": "below the threshold"}, {"measurement": "pKd", "setting": "[4]; [29]", "value": 4.9}, {"measurement": "pKd", "setting": "[5]; [29]", "value": 3.88}, {"measurement": "pKd", "setting": "[6]; [29]", "value": "below the threshold"}, {"measurement": "pKd", "setting": "[7]; [29]", "value": "below the threshold"}, {"measurement": "pKd", "setting": "[8]; [29]", "value": "below the threshold"}, {"measurement": "pKd", "setting": "[9]; [29]", "value": "below the threshold"}, {"measurement": "pKd", "setting": "[10]; [29]", "value": "below the threshold"}, {"measurement": "pKd", "setting": "[11]; [29]", "value": "below the threshold"}, {"measurement": "pKd", "setting": "[12]; [29]", "value": "below the threshold"}, {"measurement": "pKd", "setting": "[13]; [29]", "value": "below the threshold"}, {"measurement": "pKd", "setting": "[14]; [29]", "value": "below the threshold"}, {"measurement": "pKd", "setting": "[15]; [29]", "value": "below the threshold"}, {"measurement": "pKd", "setting": "[16]; [29]", "value": "below the threshold"}, {"measurement": "pKd", "setting": "[17]; [29]", "value": "below the threshold"}, {"measurement": "pKd", "setting": "[18]; [29]", "value": 3.88}, {"measurement": "pKd", "setting": "[19]; [29]", "value": 3.57}, {"measurement": "pKd", "setting": "[20]; [29]", "value": "below the threshold"}, {"measurement": "pKd", "setting": "[21]; [29]", "value": "below the threshold"}, {"measurement": "pKd", "setting": "[22]; [29]", "value": "below the threshold"}, {"measurement": "pKd", "setting": "[23]; [29]", "value": 3.48}, {"measurement": "pKd", "setting": "[24]; [29]", "value": 4.38}, {"measurement": "pKd", "setting": "[25]; [29]", "value": "below the threshold"}, {"measurement": "pKd", "setting": "[26]; [29]", "value": 4.09}, {"measurement": "pKd", "setting": "[27]; [29]", "value": 3.79}, {"measurement": "pKd", "setting": "[28]; [29]", "value": 3.96}]}
{"binder": "SQDPKKPSRV", "note": "[CBY2, Q8NA61]", "values": [{"measurement": "pKd", "setting": "[1]; [30]", "value": "below the threshold"}, {"measurement": "pKd", "setting": "[2]; [30]", "value": 4.04}, {"measurement": "pKd", "setting": "[3]; [30]", "value": "below the threshold"}, {"measurement": "pKd", "setting": "[4]; [30]", "value": "below the threshold"}, {"measurement": "pKd", "setting": "[5]; [30]", "value": "below the threshold"}, {"measurement": "pKd", "setting": "[6]; [30]", "value": "below the threshold"}, {"measurement": "pKd", "setting": "[7]; [30]", "value": "below the threshold"}, {"measurement": "pKd", "setting": "[8]; [30]", "value": "below the threshold"}, {"measurement": "pKd", "setting": "[9]; [30]", "value": "below the threshold"}, {"measurement": "pKd", "setting": "[10]; [30]", "value": "below the threshold"}, {"measurement": "pKd", "setting": "[11]; [30]", "value": "below the threshold"}, {"measurement": "pKd", "setting": "[12]; [30]", "value": "below the threshold"}, {"measurement": "pKd", "setting": "[13]; [30]", "value": "below the threshold"}, {"measurement": "pKd", "setting": "[14]; [30]", "value": "below the threshold"}, {"measurement": "pKd", "setting": "[15]; [30]", "value": 3.9}, {"measurement": "pKd", "setting": "[16]; [30]", "value": "below the threshold"}, {"measurement": "pKd", "setting": "[17]; [30]", "value": "below the threshold"}, {"measurement": "pKd", "setting": "[18]; [30]", "value": 4.43}, {"measurement": "pKd", "setting": "[19]; [30]", "value": 4.08}, {"measurement": "pKd", "setting": "[20]; [30]", "value": "below the threshold"}, {"measurement": "pKd", "setting": "[21]; [30]", "value": "below the threshold"}, {"measurement": "pKd", "setting": "[22]; [30]", "value": "below the threshold"}, {"measurement": "pKd", "setting": "[23]; [30]", "value": 4.38}, {"measurement": "pKd", "setting": "[24]; [30]", "value": "below the threshold"}, {"measurement": "pKd", "setting": "[25]; [30]", "value": 3.89}, {"measurement": "pKd", "setting": "[26]; [30]", "value": "below the threshold"}, {"measurement": "pKd", "setting": "[27]; [30]", "value": "below the threshold"}, {"measurement": "pKd", "setting": "[28]; [30]", "value": 3.67}]}
